Consider four substances from US20170029474A1.

Assay [1] concerns the target Recombinant HB-EGF (UniProt Q99075). Put plainly: cell-based or functional assay.
For assay [2] the target is unchanged. Put plainly: cell-based or functional assay. This is another data set of the same source.
Assay [3] addresses C-terminal His-tagged HB-EGF lacking the heparin-binding domain (UniProt Q99075). Put plainly: SPR, Biacore T200, His-tagged HB-EGF captured on NTA chip.

Read-outs that look alike come from different tables or passages of the source.

Recombinant HB-EGF, sequence (Q99075 63-148 limits assumed): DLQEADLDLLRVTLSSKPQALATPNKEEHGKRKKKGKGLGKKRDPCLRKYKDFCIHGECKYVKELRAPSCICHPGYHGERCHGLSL
C-terminal His-tagged HB-EGF lacking the heparin-binding domain, sequence (Q99075 other isoform, or with tags, fused parts or gaps limits assumed): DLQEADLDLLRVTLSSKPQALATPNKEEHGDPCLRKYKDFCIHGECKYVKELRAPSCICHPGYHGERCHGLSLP

CRM197 (from UniProt P00587 26-560): in the assay with Recombinant HB-EGF [1], the DER cell assay ID50 was 1.2 nM and the ID50 [nM], HB-EGF-dependent growth of DER cells stood at 1.2 nM. Further, in the assay with Recombinant HB-EGF [2], the DER cell assay ID50 is 1.02 nM and the DER cell assay Relative values (relative to CRM197) came to 1. Further, in assay [3], the Relative values (KA, against CRM197) (relative to CRM197) was 1.

On to “MBP-R (D507N) (from UniProt P00587 405-560)”, for which, in the assay with Recombinant HB-EGF [1], the ID50 [nM], HB-EGF-dependent growth of DER cells was found to be 4.5 nM.

Take “MBP-R (H520K) (from UniProt P00587 405-560)”: the ID50 [nM], HB-EGF-dependent growth of DER cells with Recombinant HB-EGF [1] turned out to be 6 nM.

Take “MBP-R (V468T) (from UniProt P00587 405-560)”: in the assay with Recombinant HB-EGF [1], the ID50 [nM], HB-EGF-dependent growth of DER cells came to 6.2 nM.
